Values of other authors in article PMC4209448 (Scientific Reports, 2014).

Conditions: C57BL/6 mice

Aβ(1–40): amyloid-β(1–40) peptide whose CSF-to-blood efflux half-time is quoted from the literature
Half-time of efflux from the CSF to blood: 34.63 ± 3.6 min
